{"source": "patent US7431923", "binders": {"B1": {"name": "7BD-33-11A monoclonal antibody (hybridoma ATCC PTA-4890) (antibody, V domains shown)", "VH": "EVQLQQSGPGLVKPGASVKMSCKASGYTFTSYVMHWVKQMPGQGLEWIGYITPYNDGTKYNEKFKGKATLTSDKSSSTAYMDLSSLTSEDSAVYYCVYGSRYDWYFDVWGAGTTVTVSS", "VL": "NIMMTQSPSSLAVSAGEKVTMSCKSSQSVLYSSNQKNYLAWYQQKPGQSPKLLIYWASTRESGVPDRFTGSGSGTDFTLTISSVQAEDLAVYYCHQYFSSYTFGGGTKLEIK"}}, "target": "T1, GST-EC2 (GST fusion of extracellular loop 2 of human CD63, amino acids 108-202) (human, UniProt P08962 108-202)", "T1 construct": "range 108-202; Expressed in E. coli BL-21; on blots as total bacterial lysate, in BIAcore captured by immobilised anti-GST antibody; Vector-encoded residues between GST and the loop are not described; also called EC2 fusion polypeptide; not shown: glutathione S-transferase as encoded by the bacterial expression vector PGEX-4T-2 (Amersham Biosciences)", "T1 sequence (looked up)": "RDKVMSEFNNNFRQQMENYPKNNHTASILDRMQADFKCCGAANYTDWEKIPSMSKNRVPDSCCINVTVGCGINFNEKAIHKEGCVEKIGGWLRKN", "assay": "BIAcore, steady state; GST-EC2 captured on immobilised anti-GST antibody, antibody injected at 12.5 to 200 nM; KD as reciprocal of KA", "data": [{"binder": "B1", "values": [{"measurement": "Kd", "result": 135, "unit": "nM"}]}]}
